Read-outs that look alike come from different tables or passages of the source.
Assays:
[1] = target: interferon γ receptor 1 protein (immobilised for SPR) (UniProt P15260); test: SPR
[2] = target: interferon γ receptor 1 protein (immobilised for SPR) (UniProt P15260); test: SPR; remark: listed apart in the source
IFNγR1 [3] = target: T1, IFNγR1 (Homo sapiens, UniProt P15260); conditions: 10 μM CF, 3 h, intact NK92 cells
Target sequence in this assay (P15260 18-489): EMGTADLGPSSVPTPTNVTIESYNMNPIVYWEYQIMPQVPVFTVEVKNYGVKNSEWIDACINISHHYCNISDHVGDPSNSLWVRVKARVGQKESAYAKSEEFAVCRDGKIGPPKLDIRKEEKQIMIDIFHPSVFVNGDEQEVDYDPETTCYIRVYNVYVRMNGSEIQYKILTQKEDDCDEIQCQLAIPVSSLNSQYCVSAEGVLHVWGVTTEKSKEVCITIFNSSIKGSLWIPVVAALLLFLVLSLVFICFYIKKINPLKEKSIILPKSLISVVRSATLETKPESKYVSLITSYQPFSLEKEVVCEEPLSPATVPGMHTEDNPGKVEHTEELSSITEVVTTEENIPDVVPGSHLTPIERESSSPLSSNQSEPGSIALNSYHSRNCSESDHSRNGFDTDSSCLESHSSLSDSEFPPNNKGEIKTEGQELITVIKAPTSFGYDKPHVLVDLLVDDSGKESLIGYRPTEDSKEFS

IFNγR1 [4] = target: T1, IFNγR1; test: biochemical
Target sequence in this assay (P15260 18-489 limits assumed): as the sequence (P15260 18-489) above

interferon γ, sequence (P01579 24-161): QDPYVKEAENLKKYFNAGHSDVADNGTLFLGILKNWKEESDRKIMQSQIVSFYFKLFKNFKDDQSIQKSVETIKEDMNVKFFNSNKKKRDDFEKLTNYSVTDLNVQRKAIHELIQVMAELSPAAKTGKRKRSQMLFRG
interferon γ receptor 1 protein (immobilised for SPR), sequence (P15260 18-489): as the sequence (P15260 18-489) above

Row | Compound | Kd [1] | Kd [2] | thermal stability (CETSA) (IFNγR1 [3]) | Kd (IFNγR1 [4])
1 | interferon γ (from UniProt P01579 24-161) (ligand) | 2.8 nM | 4.5 nM | – | –
2 | COc1cc(/C=C/C(=O)O[C@H]2CC[C@]34C[C@]35CC[C@]3(C)[C@@H]([C@H](C)CCC=C(C)C)CC[C@@]3(C)[C@@H]5CC[C@H]4C2(C)C)ccc1O [CF, Cycloartenyl ferulate] | – | – | When treated with CF, the thermal stability of IFNγR1 was significantly increased | 500 nM

— paper PMC10400924 (The Journal of Biological Chemistry, 2023)
